This passage reports protein stability index results from the supplement of paper PMC10567573.

Sequences and labels used below:
B1: SPATS1 (parent)
chain: GRKKYDIDPRNGIPKLTPGDNPYM
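Also: lentivirally expressed fusions sorted by FACS into six bins by GFP to DsRed ratio, PSI derived from sequencing read proportions per bin multiplied by bin number.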

The variants in this data set derive from B1. Kind of data set: protein stability index of a GFP-peptide fusion (GPS, HEK-293T) (PSI 1-6); higher = more stable. As to conditions: c terminus: a fixed tail appended.
With GRKKYDIDPRNGIPKLTHGDNPYM [P18H], the protein stability index turned out to be 3.42.
For GRKKYDIDPRNGIPKLTIGDNPYM [P18I], the protein stability index turned out to be 3.27.
Consider GRKKYDIDPRNGIPKLTFGDNPYM [P18F], for which the protein stability index turned out to be 1.9.
For GRKKYDIDPRNGIPKLTEGDNPYM [P18E] the value was 3.92; for GRKKYDIDPRNGIPKLTNGDNPYM [P18N], 4.09.
For GRKKYDIDPRNGIPKLTMGDNPYM [P18M] the value was 3.18; for GRKKYDIDPRNGIPKLTAGDNPYM [P18A], 3.86; for GRKKYDIDPRNGIPKLTQGDNPYM [P18Q], 3.86.
In the case of GRKKYDIDPRNGIPKLTGGDNPYM [P18G], the protein stability index is 2.98.
For GRKKYDIDPRNGIPKLTSGDNPYM [P18S] the value was 3.55; for GRKKYDIDPRNGIPKLTRGDNPYM [P18R], 3.24.
Turning to GRKKYDIDPRNGIPKLTLGDNPYM [P18L], the protein stability index amounted to 2.81.
For GRKKYDIDPRNGIPKLTDGDNPYM [P18D] the value was 3.82; for GRKKYDIDPRNGIPKLTTGDNPYM [P18T], 3.85; for GRKKYDIDPRNGIPKLTYGDNPYM [P18Y], 2.46.
Turning to GRKKYDIDPRNGIPKLTWGDNPYM [P18W], the protein stability index amounted to 2.73.
For the variant GRKKYDIDPRNGIPKLTCGDNPYM [P18C], the protein stability index was found to be 3.38.
In the case of GRKKYDIDPRNGIPKLTKGDNPYM [P18K], the protein stability index came out at 3.62.
Consider GRKKYDIDPRNGIPKLWPGDNPYM [T17W], for which the protein stability index was 2.47.
Consider GRKKYDIDPRNGIPKLEPGDNPYM [T17E], for which the protein stability index worked out at 4.33.
GRKKYDIDPRNGIPKLDPGDNPYM [T17D]: the protein stability index was determined as 3.32.
For GRKKYDIDPRNGIPKLAPGDNPYM [T17A] the value was 3.58.
For the variant GRKKYDIDPRNGIPKLRPGDNPYM [T17R], the protein stability index came to 2.95.
GRKKYDIDPRNGIPKLYPGDNPYM [T17Y]: the protein stability index turned out to be 2.89.
Turning to GRKKYDIDPRNGIPKLSPGDNPYM [T17S], the protein stability index came to 4.08.
GRKKYDIDPRNGIPKLFPGDNPYM [T17F]: the protein stability index stood at 2.72.
For the variant GRKKYDIDPRNGIPKLVPGDNPYM [T17V], the protein stability index came to 3.2.
As to GRKKYDIDPRNGIPKLNPGDNPYM [T17N], the protein stability index was 3.48.
Turning to GRKKYDIDPRNGIPKLQPGDNPYM [T17Q], the protein stability index stood at 4.21.
Regarding GRKKYDIDPRNGIPKLKPGDNPYM [T17K], the protein stability index was 3.57.
GRKKYDIDPRNGIPKLGPGDNPYM [T17G]: the protein stability index amounted to 3.48.
GRKKYDIDPRNGIPKLLPGDNPYM [T17L]: the protein stability index turned out to be 3.31.
GRKKYDIDPRNGIPKLIPGDNPYM [T17I]: the protein stability index turned out to be 3.19.
GRKKYDIDPRNGIPKLMPGDNPYM [T17M]: the protein stability index stood at 3.02.
Consider GRKKYDIDPRNGIPKLCPGDNPYM [T17C], for which the protein stability index came to 3.13.
As to GRKKYDIDPRNGIPKLPPGDNPYM [T17P], the protein stability index was determined as 3.23.
GRKKYDIDPRNGIPKLHPGDNPYM [T17H]: the protein stability index stood at 3.34.
On to GRKKYDIDPRNGIPMLTPGDNPYM [K15M], for which the protein stability index came to 3.69.
Regarding GRKKYDIDPRNGIPHLTPGDNPYM [K15H], the protein stability index stood at 3.55.
Regarding GRKKYDIDPRNGIPWLTPGDNPYM [K15W], the protein stability index came out at 1.98.
For GRKKYDIDPRNGIPQLTPGDNPYM [K15Q] the value was 4.05; for GRKKYDIDPRNGIPCLTPGDNPYM [K15C], 3.04.
Regarding GRKKYDIDPRNGIPNLTPGDNPYM [K15N], the protein stability index was 3.49.
With GRKKYDIDPRNGIPALTPGDNPYM [K15A], the protein stability index turned out to be 3.64.
In the case of GRKKYDIDPRNGIPELTPGDNPYM [K15E], the protein stability index was found to be 4.33.
Consider GRKKYDIDPRNGIPGLTPGDNPYM [K15G], for which the protein stability index came to 2.81.
Regarding GRKKYDIDPRNGIPDLTPGDNPYM [K15D], the protein stability index was found to be 3.88.
For GRKKYDIDPRNGIPFLTPGDNPYM [K15F], the protein stability index was 2.97.
As for GRKKYDIDPRNGIPYLTPGDNPYM [K15Y], the protein stability index was determined as 2.96.
For GRKKYDIDPRNGIPLLTPGDNPYM [K15L], the protein stability index is 3.29.
As for GRKKYDIDPRNGIPRLTPGDNPYM [K15R], the protein stability index worked out at 3.63.
Turning to GRKKYDIDPRNGIPVLTPGDNPYM [K15V], the protein stability index is 3.29.
Consider GRKKYDIDPRNGIPSLTPGDNPYM [K15S], for which the protein stability index turned out to be 3.69.
For GRKKYDIDPRNGIPPLTPGDNPYM [K15P], the protein stability index worked out at 3.62.
With GRKKYDIDPRNGIPTLTPGDNPYM [K15T], the protein stability index turned out to be 3.78.
On to GRKKYDIDPRNGIPILTPGDNPYM [K15I], for which the protein stability index worked out at 3.69.
Consider GRKKYDIDPRNGIPKDTPGDNPYM [L16D], for which the protein stability index is 4.11.
For GRKKYDIDPRNGIPKMTPGDNPYM [L16M] the value was 3.67; for GRKKYDIDPRNGIPKFTPGDNPYM [L16F], 3.11.
For the variant GRKKYDIDPRNGIPKTTPGDNPYM [L16T], the protein stability index was 3.98.
For GRKKYDIDPRNGIPKSTPGDNPYM [L16S] the value was 3.67.
For GRKKYDIDPRNGIPKQTPGDNPYM [L16Q] the value was 4.08; for GRKKYDIDPRNGIPKGTPGDNPYM [L16G], 4; for GRKKYDIDPRNGIPKWTPGDNPYM [L16W], 2.67.
Take GRKKYDIDPRNGIPKCTPGDNPYM [L16C]: the protein stability index stood at 3.44.
For GRKKYDIDPRNGIPKYTPGDNPYM [L16Y], the protein stability index turned out to be 3.22.
Consider GRKKYDIDPRNGIPKETPGDNPYM [L16E], for which the protein stability index came out at 4.32.
For GRKKYDIDPRNGIPKPTPGDNPYM [L16P], the protein stability index was determined as 3.67.
For GRKKYDIDPRNGIPKITPGDNPYM [L16I] the value was 3.47; for GRKKYDIDPRNGIPKRTPGDNPYM [L16R], 3.59.
Turning to GRKKYDIDPRNGIPKNTPGDNPYM [L16N], the protein stability index is 4.24.
For GRKKYDIDPRNGIPKVTPGDNPYM [L16V] the value was 4; for GRKKYDIDPRNGIPKATPGDNPYM [L16A], 4.09.
Take GRKKYDIDPRNGIPKHTPGDNPYM [L16H]: the protein stability index was 3.75.
On to GRKKYDIDPRNGIPKKTPGDNPYM [L16K], for which the protein stability index stood at 3.53.
As to GRKKYDIDPRNGIPKLTPKDNPYM [G19K], the protein stability index came out at 3.31.
With GRKKYDIDPRNGIPKLTPTDNPYM [G19T], the protein stability index stood at 3.59.
Regarding GRKKYDIDPRNGIPKLTPWDNPYM [G19W], the protein stability index came out at 2.3.
For GRKKYDIDPRNGIPKLTPADNPYM [G19A] the value was 3.32; for GRKKYDIDPRNGIPKLTPEDNPYM [G19E], 4.69; for GRKKYDIDPRNGIPKLTPQDNPYM [G19Q], 3.35.
Turning to GRKKYDIDPRNGIPKLTPRDNPYM [G19R], the protein stability index stood at 3.35.
Turning to GRKKYDIDPRNGIPKLTPMDNPYM [G19M], the protein stability index was found to be 2.81.
Take GRKKYDIDPRNGIPKLTPHDNPYM [G19H]: the protein stability index amounted to 3.34.
With GRKKYDIDPRNGIPKLTPLDNPYM [G19L], the protein stability index was 3.44.
With GRKKYDIDPRNGIPKLTPYDNPYM [G19Y], the protein stability index was determined as 2.79.
In the case of GRKKYDIDPRNGIPKLTPDDNPYM [G19D], the protein stability index worked out at 3.83.
As to GRKKYDIDPRNGIPKLTPNDNPYM [G19N], the protein stability index was found to be 3.76.
With GRKKYDIDPRNGIPKLTPSDNPYM [G19S], the protein stability index came out at 3.59.
For GRKKYDIDPRNGIPKLTPCDNPYM [G19C] the value was 3.21.
As to GRKKYDIDPRNGIPKLTPPDNPYM [G19P], the protein stability index came to 3.73.
In the case of GRKKYDIDPRNGIPKLTPIDNPYM [G19I], the protein stability index amounted to 3.28.
With GRKKYDIDPRNGIPKLTPFDNPYM [G19F], the protein stability index came to 2.63.
Take GRKKYDIDPRNGIPKLTPVDNPYM [G19V]: the protein stability index was 2.88.
